Experimental data: publication PMC4020902

Molecular target: human USP11 N-terminal DUSP-UBL (DU) domains, residues 24-244 (human)
Test: SEC; gel filtration of hUSP11DU at concentrations associated with crystallization

fraction of dimer: 5%
Substance: human USP11 N-terminal DUSP-UBL (DU) domains, residues 24-244 (domain or fragment)
